From US6294333, “Fluorescent intensity assay for protein or peptide binding to nucleic acids” (Ingeneus Corp.)

B1: JD3F/4F (dsDNA)
DNA 1: GTGTCTTACTCATGCTT
DNA 2: AAGCATGAGTAAGACAC
B2: JD1F/2F (dsDNA)
DNA 1: GTGTCTGACTCATGCTT
DNA 2: AAGCATGAGTCAGACAC
B3: JD13F/14F (dsDNA)
DNA 1: CCGGCCTAAATAGGGCTTTT
DNA 2: AAAAGCCCTATTTAGGCCGG

Columns and labels:
[1] = biological target: c-JUN DNA-binding domain peptide (wild-type) (Homo sapiens, UniProt P05412 SEQ:1-132); experiment: fluorescence quenching; minor increase in intensity at 20-200 ng; settings: chain copies: 2 (inferred); label: 5'-fluorescein both strands
Description: (§1) The c-JUN :DNA binding reaction mixture (30 μl) contained the following: 9.25 mM HEPES, pH 7.9, 2.23 mM MgCl_2, 0.03 mM EDTA, 50 mM NaCl, 5.0 mM DTT, 3.75% (v/v) glycerol, 0.15 μg/μl bovine serum albumin (BSA), 0–2.0 μg pure c-JUN protein (Promega, Madison, Wis.) or 0–400 ng pure c-JUN peptide, and 0.075 pmole 5'-fluorescein labeled dsDNA oligonucleotide. When full-length c-JUN was used, 3 ng/μl poly(dI)-poly(dC) was included in the reaction mix, and added before the addition of protein and fluorescein-labeled DNA. The examples in FIGS. 1B and 1D contained 50 mM KCl in lieu of 50 mM NaCl. Wild-type and mutant c-JUN DNA-binding domain peptides were generously supplied by Dr. Dirk Bohmann (European Molecular Biology Laboratory, Heidelberg, Germany). The reaction mixtures were incubated at 21° C. for 30 minutes, placed into a quartz cuvette, irradiated with an argon ion laser beam having a wavelength of 488 nm and monitored for fluorescent emission.

[2] = biological target: T1, c-JUN mutant 14 DNA-binding domain peptide (K277I, C278D) (Homo sapiens, UniProt P05412 SEQ:1-132); experiment: fluorescence quenching; no decrease at 200-400 ng; settings: chain copies: 2 (inferred); label: 5'-fluorescein both strands
T1 chain: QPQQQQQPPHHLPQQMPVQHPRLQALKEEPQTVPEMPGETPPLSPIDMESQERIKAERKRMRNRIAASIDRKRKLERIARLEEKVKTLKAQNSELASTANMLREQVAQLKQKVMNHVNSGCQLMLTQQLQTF
Description: as §1
The specificity of the laser binding assay was further tested by reacting a mutant c-JUN DNA-binding domain peptide with wild-type or mutant DNA. Specific mutations in the basic domain of c-JUN abolish DNA binding without affecting dimerization, whereas specific mutations in the leucine zipper prevent both dimerization and DNA binding.

c-JUN full length = c-JUN full length (Homo sapiens, UniProt P05412 P05412:1-331); experiment: fluorescence quenching; no decrease in NaCl or KCl, 21 C; settings: tags: Promega; 340 aa; chain copies: 2 (stated homodimer); label: 5'-fluorescein both strands
Description: as §1
These mutant DNA binding studies confirm the specificity of both the c-JUN:wild-type DNA binding conditions and the laser detection method.

Sp1 full length = Sp1 full length (UniProt P08047 P08047:2-785); experiment: fluorescence quenching; 200 ng Sp1, no decrease; settings: tags: Promega; label: 5'-fluorescein both strands
Description: The Sp1:DNA binding reaction mixture (30 µl) contained the following: 25 mM HEPES, pH 7.8, 100mM KCl, 100 µM ZnSO_4, 1 mM DTT, 20% (v/v) glycerol, 0.05 µg/µl BSA, 0–200 ng pure Sp1 protein (Promega) and 0.1 pmole 5'-fluorescein labeled dsDNA oligonucleotide. The reaction mixes were incubated at 0° C. for […], placed into a quartz cuvette, irradiated with an argon ion laser beam having a wavelength of 488 nm and monitored for fluorescent emission.
When 200 ng Sp1 was reacted with 0.1 pmole mutant JD13F/14F, no decrease in fluorescent intensity was observed (FIG. 4B), indicating non-binding of protein to the mutated DNA sequence. These studies confirmed the specificity of the laser detection assay for a completely different class of DNA-binding proteins.

Sp1 full length, sequence (P08047 2-785, one chain of several): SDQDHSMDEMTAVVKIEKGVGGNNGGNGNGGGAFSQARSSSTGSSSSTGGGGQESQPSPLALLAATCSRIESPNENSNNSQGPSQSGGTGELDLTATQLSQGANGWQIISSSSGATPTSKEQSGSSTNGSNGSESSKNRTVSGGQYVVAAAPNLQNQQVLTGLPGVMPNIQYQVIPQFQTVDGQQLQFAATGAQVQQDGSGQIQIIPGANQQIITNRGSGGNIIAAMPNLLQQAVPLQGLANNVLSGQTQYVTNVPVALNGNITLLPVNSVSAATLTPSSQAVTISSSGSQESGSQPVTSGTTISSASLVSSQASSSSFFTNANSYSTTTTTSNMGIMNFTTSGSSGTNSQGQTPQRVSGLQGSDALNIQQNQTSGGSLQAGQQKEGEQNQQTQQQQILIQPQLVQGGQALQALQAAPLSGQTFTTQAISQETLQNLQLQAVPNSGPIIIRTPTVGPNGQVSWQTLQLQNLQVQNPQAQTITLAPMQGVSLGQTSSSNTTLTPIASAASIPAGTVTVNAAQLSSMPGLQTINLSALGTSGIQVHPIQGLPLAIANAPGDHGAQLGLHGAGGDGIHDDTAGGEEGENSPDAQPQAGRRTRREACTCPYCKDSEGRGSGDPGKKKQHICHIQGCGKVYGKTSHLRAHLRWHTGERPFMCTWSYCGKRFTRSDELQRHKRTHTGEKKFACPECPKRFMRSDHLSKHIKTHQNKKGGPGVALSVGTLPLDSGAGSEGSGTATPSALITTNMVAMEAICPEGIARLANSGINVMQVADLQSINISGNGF

Binder	binding result [1]	binding result [2]	binding result (c-JUN full length)	binding result (Sp1 full length)
B1	no binding	no binding	no binding	–
B2	–	no binding	–	–
B3	–	–	–	no binding
